According to paper PMC8062585, “Machine learning guided aptamer refinement and discovery”:

The binders below were run against T1, NGAL (UniProt P80188 21-198) (assay: bead-based fluorescence binding (flow cytometry); PBSMCT: DPBS with 2.5 mM MgCl2, 0.9 mM CaCl2, 0.01% Tween 20; room temperature, 1 h; bound NGAL detected with iFluor 647 anti-His antibody (6 nM)). Settings: protein: commercial; tags: C-terminal His-tag; hairpin (predicted).
T1 sequence (P80188 21-198): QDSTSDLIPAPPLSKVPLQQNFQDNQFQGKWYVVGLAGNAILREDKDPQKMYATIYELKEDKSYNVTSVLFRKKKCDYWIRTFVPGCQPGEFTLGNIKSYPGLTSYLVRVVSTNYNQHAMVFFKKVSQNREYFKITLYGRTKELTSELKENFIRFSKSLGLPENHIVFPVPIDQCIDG

| Binder | Kd [nM] |
| --- | --- |
| ACGTTTTTGGTGGATAGCAAATG (ssDNA, 5' biotin) [G12.5 (G12_23)] | 11 |
| GAGGATTTGGTGGATAGTAAATC (ssDNA, 5' biotin) [G13.8 (G13_23)] | 1.5 |

What follows are binders tested against T1, NGAL (assay: bead-based fluorescence, 4-concentration estimate; PBSMCT: DPBS with 2.5 mM MgCl2, 0.9 mM CaCl2, 0.01% Tween 20; room temperature, 1 h; bound NGAL detected with iFluor 647 anti-His antibody (6 nM)). Settings: protein: commercial; tags: C-terminal His-tag.

| Binder | Kd [nM] |
| --- | --- |
| ACGTTTTTGGTGGATAGCAAATGCCAGGGCCCTTTTTTG (ssDNA, 5' biotin) [G12.1] | < 16 |
| CAAGAGGATTTGGTGGATAGTAAATCTTTGC (ssDNA, 5' biotin) [G13.3] | < 8 |
| TTTGGTGGATAGTAA (ssDNA, 5' biotin) [G13.12] | < 256 |
| GAGGATTTGGTGGATAGTAAATCTTTG (ssDNA, 5' biotin) [G13.4] | < 8 |
| CAAGAGGATTTGGTGGATAGTAAATCTTTGCCTAT (ssDNA, 5' biotin) [G13.2] | < 16 |
| GTTTTTGGTGGATAGCAAA (ssDNA, 5' biotin) [G12.6] | < 32 |
| ACGTTTTTGGTGGATAGCAAATGCCAGGGCCCTTT (ssDNA, 5' biotin) [G12.2] | < 32 |
| AGAGGATTTGGTGGATAGT (ssDNA, 5' biotin) [G13.11] | < 1020 |
| AGAGGATTTGGTGGATAGTAAAT (ssDNA, 5' biotin) [G13.7] | < 16 |
| AAGAGGATTTGGTGGATAGTAAATCTT (ssDNA, 5' biotin) [G13.5] | < 8 |
| CAAGAGGATTTGGTGGATAGTAAATCTTTGCCTATCCAG (ssDNA, 5' biotin) [G13.1] | < 16 |
| ACGTTTTTGGTGGATAGCAAATGCCAG (ssDNA, 5' biotin) [G12.4] | < 16 |
| ACGTTTTTGGTGGATAGCAAATGCCAGGGCC (ssDNA, 5' biotin) [G12.3] | < 32 |

Same assay, conditions: protein: commercial; tags: C-terminal His-tag; hairpin (predicted)

| Binder | Kd [nM] |
| --- | --- |
| ACGTTTTTGGTGGATAGCAAATG (ssDNA, 5' biotin) [G12.5 (G12_23)] | < 16 |
| GAGGATTTGGTGGATAGTAAATC (ssDNA, 5' biotin) [G13.8 (G13_23)] | < 8 |
